Measurements: patent US20220056091A1 (BRIGHT PEAK THERAPEUTICS, published 2022)

Key:
Assay in all cases: cell-based or functional assay
[1] = biological target: T1, IL-18 polypeptide of SEQ ID NO: 1 (native sequence, human IL-18 37-193) (human, UniProt Q14116 37-193)
T1 sequence: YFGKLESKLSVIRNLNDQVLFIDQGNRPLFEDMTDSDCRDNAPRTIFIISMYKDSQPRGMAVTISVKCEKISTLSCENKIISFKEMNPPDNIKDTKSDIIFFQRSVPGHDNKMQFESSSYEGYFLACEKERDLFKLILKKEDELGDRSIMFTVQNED

[2] = biological target: T2, Modified IL-18 polypeptide of SEQ ID NO: 11 (E06K, K53A, S55A, Y01G) (human, UniProt Q14116 38-193)
T2 chain: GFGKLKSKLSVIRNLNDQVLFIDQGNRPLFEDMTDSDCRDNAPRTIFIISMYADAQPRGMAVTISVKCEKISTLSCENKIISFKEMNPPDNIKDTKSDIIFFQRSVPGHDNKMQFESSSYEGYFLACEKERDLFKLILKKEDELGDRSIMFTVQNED

[3] = biological target: T3, Modified IL-18 polypeptide of SEQ ID NO: 14 (E06K, K53A, S55A, M51G) (human, UniProt Q14116 37-193)
T3 chain: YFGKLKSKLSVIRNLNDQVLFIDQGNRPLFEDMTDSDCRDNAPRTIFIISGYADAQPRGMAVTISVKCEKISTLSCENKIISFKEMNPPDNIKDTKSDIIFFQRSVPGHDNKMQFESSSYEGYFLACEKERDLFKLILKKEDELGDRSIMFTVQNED

[4] = biological target: T4, Modified IL-18 polypeptide of SEQ ID NO: 15 (C38S, C68S, C76S, C127S) (human, UniProt Q14116 37-193)
T4 chain: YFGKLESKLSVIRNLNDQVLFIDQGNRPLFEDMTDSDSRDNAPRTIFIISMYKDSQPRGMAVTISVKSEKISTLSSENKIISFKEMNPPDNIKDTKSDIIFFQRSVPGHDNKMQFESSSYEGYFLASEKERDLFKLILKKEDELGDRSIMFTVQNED

[5] = biological target: T5, Modified IL-18 polypeptide of SEQ ID NO: 16 (C38S, C68S, C76S, C127S, K70C) (human, UniProt Q14116 37-193)
T5 chain: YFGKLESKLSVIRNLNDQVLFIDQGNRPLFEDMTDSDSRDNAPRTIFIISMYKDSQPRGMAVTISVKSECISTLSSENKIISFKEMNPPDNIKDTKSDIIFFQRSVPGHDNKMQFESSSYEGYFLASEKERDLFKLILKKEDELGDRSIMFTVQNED

[6] = biological target: Modified IL-18 polypeptide of SEQ ID NO: 19 (T63A) (human, UniProt Q14116 37-193)
[7] = biological target: T6, Modified IL-18 polypeptide of SEQ ID NO: 2 (E06K, K53A, S55A) (human, UniProt Q14116 37-193)
T6 chain: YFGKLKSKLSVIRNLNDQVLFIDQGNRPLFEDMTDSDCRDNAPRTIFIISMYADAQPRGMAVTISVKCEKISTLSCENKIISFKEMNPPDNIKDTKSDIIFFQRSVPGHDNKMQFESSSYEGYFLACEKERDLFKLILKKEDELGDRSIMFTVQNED

[8] = biological target: Modified IL-18 polypeptide of SEQ ID NO: 20 (E06K, T63A) (human, UniProt Q14116 37-193)
[9] = biological target: Modified IL-18 polypeptide of SEQ ID NO: 21 (K53A, T63A) (human, UniProt Q14116 37-193)
[10] = biological target: T7, Modified IL-18 polypeptide of SEQ ID NO: 22 (E06K, K53A, C38S, C68S, C76S, C127S, K70C) (human, UniProt Q14116 37-193)
T7 chain: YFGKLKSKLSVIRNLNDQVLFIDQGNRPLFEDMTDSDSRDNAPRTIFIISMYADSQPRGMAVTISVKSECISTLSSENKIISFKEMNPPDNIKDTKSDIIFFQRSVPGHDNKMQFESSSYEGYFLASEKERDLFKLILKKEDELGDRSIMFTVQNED

[11] = biological target: T8, Modified IL-18 polypeptide of SEQ ID NO: 71 with a 30 kDa PEG attached at residue C68 (E6K, C38S, K53A, … (human, UniProt Q14116 37-193, 30 kDa PEG on Cys 68 (30 kDa DBCO-polyethylene glycol clicked to a bromoacetamido-PEG5-azide linker on the cysteine)))
T8 chain: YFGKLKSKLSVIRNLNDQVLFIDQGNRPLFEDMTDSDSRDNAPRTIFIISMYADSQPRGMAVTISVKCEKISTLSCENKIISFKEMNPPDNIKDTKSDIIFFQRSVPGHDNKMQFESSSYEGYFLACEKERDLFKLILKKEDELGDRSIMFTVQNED

[12] = biological target: T9, Modified IL-18 polypeptide of SEQ ID NO: 3 (Y01G, F02A, E06K, M51G, K53A, D54A, S55A, T63A) (human, UniProt Q14116 37-193)
T9 chain: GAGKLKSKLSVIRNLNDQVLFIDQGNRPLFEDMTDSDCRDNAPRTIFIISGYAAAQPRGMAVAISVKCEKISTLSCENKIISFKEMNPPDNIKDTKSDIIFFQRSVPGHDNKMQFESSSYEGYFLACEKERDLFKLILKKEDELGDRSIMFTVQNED

[13] = biological target: Modified IL-18 polypeptide of SEQ ID NO: 5 (S55A) (human, UniProt Q14116 37-193)
[14] = biological target: Modified IL-18 polypeptide of SEQ ID NO: 6 (E06K) (human, UniProt Q14116 37-193)
[15] = biological target: Modified IL-18 polypeptide of SEQ ID NO: 8 (E06K, S55A) (human, UniProt Q14116 37-193)

B1: Fc fused human IL-18BP isoform a (IL-18BPa) (Fc fusion, UniProt O95998 31-194, looked up, not shown: a dimerising Fc or GST)
chain: TPVSQTTTAATASVRSTKDPCPSQPPVFPAAKQCPALEVTWPEVEVPLNGTLSLSCVACSRFPNFSILYWLGNGSFIEHLPGRLWEGSTSRERGSTGTQLCKALVLEQLTPALHSTNFSCVLVDPEQVVQRHVVLAQLWAGLRATLPPTQEALPSSHSSPQQQG
- IC50 (nM), IL-18BPa inhibition of IFNγ release by NK-92 cells (1 nM IL-18 analyte) [1]: 1.47 nM
- IC50 (nM), IL-18BPa inhibition of IFNγ release by NK-92 cells (1 nM IL-18 analyte) [2]: 27.8 nM
- IC50 (nM), IL-18BPa inhibition of IFNγ release by NK-92 cells (1 nM IL-18 analyte) [3]: 0.189 nM
- IC50 (nM), IL-18BPa inhibition of IFNγ release by NK-92 cells (1 nM IL-18 analyte) [4]: 0.444 nM
- IC50 (nM), IL-18BPa inhibition of IFNγ release by NK-92 cells (1 nM IL-18 analyte) [5]: 0.114 nM
- IC50 (nM), IL-18BPa inhibition of IFNγ release by NK-92 cells (1 nM IL-18 analyte) [6]: 0.239 nM
- IC50 (nM), IL-18BPa inhibition of IFNγ release by NK-92 cells (1 nM IL-18 analyte) [7]: 229 nM
- IC50 (nM), IL-18BPa inhibition of IFNγ release by NK-92 cells (1 nM IL-18 analyte) [8]: 47.1 nM
- IC50 (nM), IL-18BPa inhibition of IFNγ release by NK-92 cells (1 nM IL-18 analyte) [9]: 18.2 nM
- IC50 (nM), IL-18BPa inhibition of IFNγ release by NK-92 cells (1 nM IL-18 analyte) [10]: 23.5 nM
- IC50 (nM), IL-18BPa inhibition of IFNγ release by NK-92 cells (1 nM IL-18 analyte) [11]: 0.66 nM
- IC50 (nM), IL-18BPa inhibition of IFNγ release by NK-92 cells (1 nM IL-18 analyte) [12]: > 55 nM
- IC50 (nM), IL-18BPa inhibition of IFNγ release by NK-92 cells (1 nM IL-18 analyte) [13]: 4.46 nM
- IC50 (nM), IL-18BPa inhibition of IFNγ release by NK-92 cells (1 nM IL-18 analyte) [14]: 7.79 nM
- IC50 (nM), IL-18BPa inhibition of IFNγ release by NK-92 cells (1 nM IL-18 analyte) [15]: 15 nM
